# Measured values as given in patent EP4729546A1 (Jiangsu BioJeTay Biotechnology Co., Ltd., dated 2026).
# Substitutions are numbered along the chain they refer to. Where two headings read alike, the source gives them in different places.
# T1: FXIIa (purchased from Enzyme Research Lab) (UniProt P00748 20-615, limits assumed)
# T1 sequence (looked up): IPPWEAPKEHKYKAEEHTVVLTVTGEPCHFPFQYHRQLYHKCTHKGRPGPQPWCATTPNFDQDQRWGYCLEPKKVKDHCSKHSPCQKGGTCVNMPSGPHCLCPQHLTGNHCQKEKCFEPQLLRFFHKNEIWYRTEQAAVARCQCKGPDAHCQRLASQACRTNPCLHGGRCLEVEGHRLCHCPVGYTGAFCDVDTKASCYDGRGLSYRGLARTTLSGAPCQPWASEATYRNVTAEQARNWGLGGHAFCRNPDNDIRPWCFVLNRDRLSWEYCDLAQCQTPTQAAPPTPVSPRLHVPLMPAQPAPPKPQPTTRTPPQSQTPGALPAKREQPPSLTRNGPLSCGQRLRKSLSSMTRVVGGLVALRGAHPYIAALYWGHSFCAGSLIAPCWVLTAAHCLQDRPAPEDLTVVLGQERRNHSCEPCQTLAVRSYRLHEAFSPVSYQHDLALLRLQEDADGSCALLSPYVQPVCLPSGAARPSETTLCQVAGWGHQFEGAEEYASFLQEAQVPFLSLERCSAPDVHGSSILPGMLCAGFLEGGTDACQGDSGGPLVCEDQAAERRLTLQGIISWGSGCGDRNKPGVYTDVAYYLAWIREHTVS
# T2: huFXII-his (human, UniProt P00748 20-615)
# T2 sequence (looked up): T1 sequence (looked up)
# B1: FX-Y17 (antibody, V domains shown)
# VH: EVQLLESGGGLVQPGGSLRLSCAGSGFSFGSQTMSWVRQAPGKGLEWVSSISVISGRTYYADSVKGRFTISRDNSKNTLYLQMNSLRAEDTAVYYCTKSHAFDVWGQGTMVTVSS
# VL: EIVLTQSPATLSVSPGERATLSCRASQSVYSNLAWYQQKPGQAPRLLIYGASTRATGIPARFSGSGSGTEFTLTISSLQSEDFAVYYCQQYNKWPLSFGGGTKVEIK
# B2: FX-Y17-Y4 (antibody, V domains shown)
# VH: B1 VH with I51S, S52H
# VL: B1 VL with S31Y, N92H
# B3: FX-Y39 (antibody, V domains shown)
# VH: QVQLQQSGGGLVQTGGSLRLACAGTGFTFSDYSMNWVRQAPGKGLEWVSYISNSRSRSSKYYADSVKGRFTISRDNAKNSLYLQMNSLRAEDTAVYYCARIGYCKNGVCGGAYDYWGQGTLVTVSS
# VL: EIVLTQSPSAMSASVGDRVTITCRASQAIRNNLAWFQQKPGKVPKRLMNTASSLESGVPSRFSGSGSGTEFTLTITSLQPEDFASYYCLQYHDSPWTFGQGTKLEIK
# B4: FX-Y17-Y45 (antibody, V domains shown)
# VH: B1 VH with V53H, T97A
# VL: B1 VL with N32A, Y91N, K93R
# B5: FX-Y17-Y34 (antibody, V domains shown)
# VH: B1 VH with G56R, K98R
# VL: B1 VL with Y30W, N92H
# B6: FX-Y17-Y47 (antibody, V domains shown)
# VH: B1 VH with T58D, K98R
# VL: B1 VL with N32A, N92H
# B7: FX-Y17-Y48 (antibody, V domains shown)
# VH: B1 VH with T58A, K98R
# VL: B1 VL with N32A, N92H
# B8: FX-Y17-Y50 (antibody, V domains shown)
# VH: B1 VH with T58R
# VL: B1 VL with N32A, N92H
# B9: FX-Y17-Y51 (antibody, V domains shown)
# VH: B1 VH with T58N, K98R
# VL: B1 VL with N32A, N92H
# B10: FX-Y17-Y24 (antibody, V domains shown)
# VH: B1 VH with V53Y, S99G
# VL: B1 VL with N32A, N92H
# B11: FX-Y17-Y26 (antibody, V domains shown)
# VH: B1 VH
# VL: B1 VL with N32A, N92H
# What was measured:
# huFXII-his (human) [1] = target: huFXII-his (human) (UniProt P00748); assay: ELISA, huFXII-his coated at 1 µg/ml, HRP anti-human secondary, OD450
# huFXII-his (human) [2] = target: huFXII-his (human) (UniProt P00748); assay: cell-based or functional assay
# [3] = target: FXIIa (purchased from Enzyme Research Lab) (UniProt P00748); assay: cell-based or functional assay
# huFXII-his (human) [4] = target: huFXII-his (human) (UniProt P00748); assay: cell-based or functional assay; remark: listed apart in the source
# [5] = target: T1, FXIIa (purchased from Enzyme Research …); assay: cell-based or functional assay
# huFXII-his = target: T2, huFXII-his; assay: cell-based or functional assay
Molecule,IC50 of inhibition of cleavage of chemical substrate S2302 by FXIIa (OD405) (huFXII-his (human) [4]) [µg/mL],IC50 of inhibition of cleavage of chemical substrate S2302 by FXIIa (OD405) (huFXII-his) [µg/mL],further results
CSL312 (antibody),0.0258,–,"EC50 (huFXII-his (human) [1]): 0.421 µg/mL; IC50 of inhibition of cleavage of chemical substrate S2302 by FXIIa (OD405) (huFXII-his (human) [2]): 0.0232 µg/mL; IC50 of inhibition of the cleavage of PK proenzyme (prekallikrein) by FXIIa, read with pKa substrate CS-3102 (OD405) [3]: 0.11 µM"
B1,0.0213,–,IC50 of inhibition of cleavage of chemical substrate S2302 by FXIIa (OD405) (huFXII-his (human) [2]): 0.0251 µg/mL
B2,0.0116,–,"EC50 (huFXII-his (human) [1]): 0.205 µg/mL; IC50 of inhibition of the cleavage of PK proenzyme (prekallikrein) by FXIIa, read with pKa substrate CS-3102 (OD405) [5]: 0.0306 µM"
B3,–,–,IC50 of inhibition of cleavage of chemical substrate S2302 by FXIIa (OD405) (huFXII-his (human) [2]): 0.0398 µg/mL
B4,0.0221,–,"EC50 (huFXII-his (human) [1]): 0.358 µg/mL; IC50 of inhibition of the cleavage of PK proenzyme (prekallikrein) by FXIIa, read with pKa substrate CS-3102 (OD405) [5]: 0.0235 µM"
B5,–,0.0282,"IC50 of inhibition of the cleavage of PK proenzyme (prekallikrein) by FXIIa, read with pKa substrate CS-3102 (OD405) [5]: 0.0271 µM"
B6,–,0.0179,–
B7,–,0.0141,–
B8,–,0.0225,–
B9,–,0.0155,–
B10,–,0.0166,–
B11,–,0.0163,–
